Laboratory results reported in publication PMC8867601, “The TERB1 MYB domain suppresses telomere erosion in meiotic prophase I”.

Tests used:
Conditions in all cases: protein: recombinant; tags: none after Ulp1 cleavage of His-Smt3; label: 32P (T4 PNK)
hTERB1-MYB A712K = target: T1, hTERB1-MYB A712K (Homo sapiens, UniProt Q8NA31 666-719, A712K); experiment: EMSA; 150 nM probe; 50 mM Tris-HCl pH 8.0, 6.5% glycerol, 20 mM NaCl, 5 mM DTT, 150 nM probe, 10 ul, 30 min on ice; 4-20% TBE native gel
T1 sequence: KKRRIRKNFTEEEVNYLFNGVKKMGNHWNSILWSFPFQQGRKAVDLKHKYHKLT

hTERB1-MYB H713D = target: T2, hTERB1-MYB H713D (Homo sapiens, UniProt Q8NA31 666-719, H713D); experiment: as above
T2 sequence: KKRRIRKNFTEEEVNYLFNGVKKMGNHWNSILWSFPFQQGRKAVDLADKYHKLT

hTERB1-MYB H716R = target: T3, hTERB1-MYB H716R (Homo sapiens, UniProt Q8NA31 666-719, H716R); experiment: as above
T3 sequence: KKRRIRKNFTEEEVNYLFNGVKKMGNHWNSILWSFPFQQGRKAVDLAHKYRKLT

hTERB1-MYB triple mutant = target: T4, hTERB1-MYB triple mutant (Homo sapiens, UniProt Q8NA31 666-719, A712K;H713D;H716R); experiment: EMSA; 2-8 uM protein, 150 nM probe; 50 mM Tris-HCl pH 8.0, 6.5% glycerol, 20 mM NaCl, 5 mM DTT, 150 nM probe, 10 ul, 30 min on ice; 4-20% TBE native gel
T4 sequence: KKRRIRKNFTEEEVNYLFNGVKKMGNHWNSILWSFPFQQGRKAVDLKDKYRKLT

Measured: binding result

B1: dsDNA_telo_8-mer (TTAGGG)8 (dsDNA)
DNA 1: TTAGGGTTAGGGTTAGGGTTAGGGTTAGGGTTAGGGTTAGGGTTAGGG
DNA 2: CCCTAACCCTAACCCTAACCCTAACCCTAACCCTAACCCTAACCCTAA
no binding: hTERB1-MYB A712K | hTERB1-MYB H713D | hTERB1-MYB H716R | hTERB1-MYB triple mutant
